# B1: GST/ORF104 fusion protein (other)
# chain: MVTKEFLKTKLECSDMYAQKLIDEAQGDENRLYDLFIQKLAERHTRPAIVEY
# notes: also called GST-fusion of ORF 104; not shown: GST moiety encoded by expression vector pGEX 4T-1 (Pharmacia)
# B2: Gal4 activation domain fused to S. aureus DnaI amino acids 150 to 313 (other)
# chain: AADDICTAITNGEQVKGLYLYGPFGTGKSFILGAIANQLKSKKVRSTIIYLPEFIRTLKGGFKDGSFEKKLHRVREANILMLDDIGAEEVTPWVRDEVIGPLLHYRMVHELPTFFSSNFDYSELEHHLAMTRDGEEKTKAARIIERVKSLSTPYFLSGENFRNN
# B3: Gal4 activation domain fused to S. aureus DnaI amino acids 64 to 313 (other)
# chain: YKDQQKHYDGHKFADCPNFVKGHVPELYVDNNRIKIRYLQCPCKIKYDEERFEAELITSHHMQRDTLNAKLKDIYMNHRDRLDVAMAADDICTAITNGEQVKGLYLYGPFGTGKSFILGAIANQLKSKKVRSTIIYLPEFIRTLKGGFKDGSFEKKLHRVREANILMLDDIGAEEVTPWVRDEVIGPLLHYRMVHELPTFFSSNFDYSELEHHLAMTRDGEEKTKAARIIERVKSLSTPYFLSGENFRNN
# B4: Gal4 activation domain (GAD) fused to full-length S. aureus DnaI (pGAD dnaI) (other)
# chain: MGGGQSIMKQFKSIINTSQDFEKRIEKIKKEVINDPDVKQFLEAHRAELTNAMIDEDLNVLQEYKDQQKHYDGHKFADCPNFVKGHVPELYVDNNRIKIRYLQCPCKIKYDEERFEAELITSHHMQRDTLNAKLKDIYMNHRDRLDVAMAADDICTAITNGEQVKGLYLYGPFGTGKSFILGAIANQLKSKKVRSTIIYLPEFIRTLKGGFKDGSFEKKLHRVREANILMLDDIGAEEVTPWVRDEVIGPLLHYRMVHELPTFFSSNFDYSELEHHLAMTRDGEEKTKAARIIERVKSLSTPYFLSGENFRNN
# B5: Gal4 activation domain fused to phage 77 ORF104 (pGAD77ORF104) (other)
# chain: B1 chain
# B6: S. aureus DnaI (native protein from S. aureus cell extract) (other)
# chain: B4 chain
# notes: also called DnaI homolog; DnaI related protein
# B7: bacteriophage 77 ORF 104 protein (GST removed) (other)
# chain: B1 chain
# notes: also called phage 77 ORF 104 gene product
# Assays:
# [1] = target: B6; experiment: affinity chromatography: S. aureus extract (French pressure cell and sonication) on micro-columns with ligand cross-linked at 0, 0.1, 0.5, 1.0 and 2.0 mg/ml resin; eluate with 1% Triton X-100; 12.5% SDS-PAGE, silver stain
# [2] = target: Gal4 DNA binding domain fused to phage 77 ORF104 (pGBK77ORF104) (yeast; Staphylococcus aureus …, UniProt P04386 1-147); experiment: yeast two-hybrid: growth of co-transformants on THAL minus SD medium; all six sectors show growth on TL minus SD medium
# [3] = target: Gal4 DNA binding domain fused to full-length S. aureus DnaI (pGBK dnaI) (yeast; Staphylococcus aureus, UniProt P04386 1-147); experiment: yeast two-hybrid: growth of co-transformants on SD plate without Trp, Leu, His and Ade (HIS3 and ADE2 reporters); all six sectors grow on the SD plate without Trp and Leu
# GST = target: T1, GST (UniProt P08515 1-218 = GST); experiment: affinity chromatography: S. aureus extract (French pressure cell and sonication) on micro-columns with GST cross-linked at 0 to 2.0 mg/ml resin; eluate with 1% SDS; 12.5% SDS-PAGE, silver stain
# T1 construct: also called GST ligand (control)
# T1 sequence (P08515 whole entry): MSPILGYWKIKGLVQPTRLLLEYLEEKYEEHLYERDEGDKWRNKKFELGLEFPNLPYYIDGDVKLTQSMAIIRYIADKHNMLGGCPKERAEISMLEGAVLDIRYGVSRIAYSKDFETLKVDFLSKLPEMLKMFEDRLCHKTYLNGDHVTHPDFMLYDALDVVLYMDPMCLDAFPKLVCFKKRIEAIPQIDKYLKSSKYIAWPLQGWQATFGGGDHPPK
# [4] = target: B6; experiment: affinity chromatography of S. aureus extract, elution with 1% Triton X-100 and 1% SDS, silver stain, MALDI-ToF identification
binder,measurement,setting,value
B1,binding result,[1],binds
B2,binding result,[2],binds
B3,binding result,[2],binds
B4,binding result,[2],binds
B5,binding result,[3],binds
B6,binding result,GST,no binding (tested: 2.0 mg/ml resin)
B7,binding result,[4],binds

# — patent US7101969 (TARGANTA THERAPEUTICS, dated 2006)
